Assay: yeast display, Sf9 membrane polyspecificity reagent, FACS + sequencing; frameworks hold sequencing errors
Summary of the method: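 After 36–48 hours of galactose induction, yeast (Saccharomyces cerevisiae BJ5465) displaying a synthetic nanobody library were stained at 4 °C for 1 hour with 10% biotinylated, detergent-solubilized Sf9 membrane reagent. Streptavidin microbeads enriched the stained cells before FACS sorting into low and high (top ~1%) gates on anti-HA and streptavidin fluorescence. Each clone's polyreactivity label reflects its gate of origin.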

Row | Sequence | polyreactivity (PSR sort gate)
1 | QVQLVESGGGLVQAGGSLRLSCAASGRIFLYYAMGWYRQAPGKERELVAAITSDGSTNYADSVKGRFTISRDNAKNTVYLQMNSLKPEDTAVYYCARRIQTYHYHYDYWGQGTQVTVSS | low polyreactivity
2 | QVQLVESGGGLVQAGGSLRLSCAASGIIFTDYAMGWYRQAPGKERELVAAISSGGGSTYYADSVKGRFTISRDNAKNTVYLQMNSLKPEDTAVYYCAAEGYLISGAGDYLYDYYWGQGTQVTVSS | high polyreactivity
3 | QVQLVESGGGLVQAGGSLRLSCAASGFTFYRYAMGWYRQAPGKERELVAAISWSGASTYYADSVKGRFTISRDNAKNTVYLQMNSLKPEDTPVYYCNAYDTYLGGFDYWGQGTQVTVSS | high polyreactivity
4 | QVQLVESGGGLVQAGGSLRLSCAASGRTFSSYVMGWYRQAPGKERELVASISRRGGSTYYADSVKGRFTISRDNAKNTVYLQMNSLKPEDTAVYYCNADLRGYGRGTDQYTFDYWGQGTQVTVSS | high polyreactivity
5 | QVQLVESWGGLVQAGGSLRLSCAASGIIFRYYAIGWYRKAPGKERELVAAISRSGARTYYADSVKGRFTISRDNAKNTVYLQMNSLKPEDTAVYYCATEPTSGRFYYWGQGTQVTVSS | high polyreactivity
6 | QVQLVESGGGLVLAGGSLRLSSAASGSIFYRNAMGWYRQSPGKERQLVATITVNGGRTYYADSVKGRFTISRDIAKNTVYLQMNSLKPEDTAVYYCAKDVHRWYPYDYCGQGTQVTVSS | low polyreactivity
7 | QVQLVESGGGLLQAGGSLRLSFAASGSIVGPYGRGWYRQAPGKERELVAAISTVGGSTYYADSVKGRFTISRDNAKNTVYLQMNSLTPEDTAGYYCAKVPRYIELSRQATHSYDYWGHGTQVTVSS | low polyreactivity
8 | QVQLVESGGGLVQAGGSLRLSCAASGRTFYNTMGWYRQPPGKERELVAAISRGGITNYADSVKGRFTISRDNAKNTVYLQMNSLKPEDTAVYYCNAEPKLYYYYYKFDYWGQGTQVTVAS | high polyreactivity
9 | QVQLVESGGGLVQAGGSVRLSCAASGGTFKANAMGWYRQAPGKERELVAAISWSGGSTYYADSVKGRFTISRDNAKNSVYLQMNSLKPEDTAVYYCRYWKYRSYDYWGQGTQVTVSS | high polyreactivity
10 | QVHLVQSGGGLVQAGGSLRLSCAASGSILYFYAKGWYRQAPGKERELVAAISWTGGSTYYADSVKGRFTISRDNAKNTVYLQMNSLKPEDTAVYYCAAELWYEGYDYWGQGTQVTVSS | high polyreactivity
11 | QVQLVESGGGLVQAGGSLRLSCAASGRILSGNAMGWYRQAPGKERELVAAITNAGITKYADSVKGRFTISRDNAKNTVYLQMNSLKPEDTAVYYCATDRYAYKLYDYWGQGTQVTVSS | low polyreactivity
12 | QDQHVESGGGLVQAGGSLRLSCAASGLTFHRYAMGWSRQAPGKERELVAAINYSGGRTYYADSVKGRFTISRDNAKNTVYLLMNSLKPEDTAVYYCAGYDYWGQGTQVTVSS | high polyreactivity
13 | QVQLVESGGGLVQAGGSLRLSCAASGSIFVSNAMGWYRQAPGKERELVAAISGGRSTYYADSVKGRFTISRDNAKNTVYLQMNSLKPEDTAVYYCAKKGGHRTYGYDSWGQGTQVTVSS | low polyreactivity
14 | QVQLVESGGGIVQAGGSLRLSCAASGSIFSYYAMGWYRMAPGKERELVAGITGGGSTDYADSLKGRFTISRDNAKNTVYLQMNSLKPEDTAVYYCAKRYVPWRPYDYWGKGTQVTVSS | low polyreactivity
15 | QVQLVESGGCLVQAGGSLRLSCAASGRTSTGYSMGWYRQAPGKERELVAGIDKIGGRTYYADSVKGRFTISRDNAKNTVYLQMNSLKPEDTAVYYCAVKTSPRRYYWGQGTQVTVSS | high polyreactivity
16 | QVQLVESGGGLVQAGGSLRLSCASSGFTFRGYAIGWYRQAPGKERELVAAITGGGSTNYADSVKGRFTISRDNAKNTVYLQMNSLKPEDTAVYYCAADASWALFAWAHYDYWGEGTQVTVSS | low polyreactivity
17 | QVQLVESGGGLVQAGGSLRLSCAASGMTFGLYAMGWYRQAPGKERELVAAISKRGGSTNYADSVKGRFTISRDNAKNTVYLQMNSLKPEDTAGYYCAARYPQRGTGKATYVRSRSGYWGLGTQVTVSS | high polyreactivity
18 | QVQLVESGGGLVQAGGSLRLSCAASGSTLSANAMGWYRQAPGKERELVAAISWNGGSTYYADSVKGRFTISRDNAKNTVYLQMNSLKPEDTAVYYCAAEYIVTYEYWYFGYDYWGQGTQVTVSS | low polyreactivity
19 | QVQLVESGGGLVQAGGSLRLSCAASGSIFPAYAMGWYRQAPGKERELVAAITDRGGYTYYADSVKGRFTISRDNAKNTVYLQMNSLKPEDT | low polyreactivity
20 | QDQLVESVVGLVQAGGSLSLSCDSSARTFWYNAMGCYRQAPGKEREFVAAISSSGGTTYYADSVKGRFTISRDNAKNTVYLQMNSLKPEDTAVYYCAKRFSLLSTVRWGRYNYWGQGTQVTVSS | high polyreactivity
21 | QVQLVESGGGLVQAGGSLRLSCAASGFTFGHYAMGWDRQAPGKERELVAAISSGDRTYYADSVKGRFTISRDNAKNTVYLQMNSLKPEDTAVYSCNAVYYSWAQSARFDYWGQGTQVTVSS | low polyreactivity
22 | QVQLVESGGGLLQAGGSLRLSCAASGSIFLYYAMGWYRQAPGKERELVAGISRGGGTTYYADSVKGRFTISRDNAKNTVYLQMNSLKPEDTAFYYCATVFWRSKHEYWGQGTQVTVSW | high polyreactivity

Row | Sequence | polyreactivity (PSR sort gate)
23 | QVQLVESGGGLVKAGGSLRLSCAASGSTFYNYAMGWYRQAPGKERELVAAISTRGGSTYYADSVKGRFTISRDNAKNTVYLQMNSLKPEDTAVYYCAADGRGGHDDYWGQGTQVTVSS | high polyreactivity
24 | QVQLVESGGGLVQAGGSLRLSCAASGITFFLYTMGWYRQAPGKERELVAAITWRGTSTYYADSVKGRFTISRDNAKNTVYLQMNSLKPEDTGVYYCAARSRRGGYPRYYYWGQGTQVTVSS | high polyreactivity
25 | QVQLVESGGGLVQAGGSLRVSCAASGFISGYYTMRWYRQAPGKEWELVAVINSGGSTYYADSVKGRFTISRDNAKNTVYLQMNSLKPEDTAVYYCAKLGGKYSRYYYWGQGTQVTVSS | low polyreactivity
26 | QVQLVESGGGLDQAGGSLRLSCAASGRIFGYYVMGWYRQAPGKEREFVAAISRSGGSTYYADSVKGRFTISRDNAKTTVYLQMNSLKPEDTAVYYCAKRVSTYGFSGYDYWGQGTQVTVSS | high polyreactivity
27 | QVQLVESGGGLVQAGGSLRLSCADSGRTFVGNAMGWYRQAPGKGWEFVAAISRSGGSTNYADSVKGRFTISRDNAKNTVYLQMKSLKPEDTAVYYCAARDRFGGIRRYIYWGQGTQVTVSS | high polyreactivity
28 | QVQLVESGGGLVQAGGSLRLICAASGRTFYPNAMGWYRPAPGKERELVAAINSGDSTSYADSVKGRFTIARDNAKNTVYLQMNRLKPEDTAVYYCAAAEWYQFFIYRYTYEYWGQGTQVTVSS | low polyreactivity
29 | QVQLVESGGGLVQAGGSLRLSCAASGSIFGVNAMGWYRQAPGKERELVASISLSDDRTYYADSVKGRFTISRDNAKNTVYLQMNSLKPEDTAVYYCARRILWYWDVYPSLAEYDYWGQGTQVTVSS | low polyreactivity
30 | QVQLVESGGGLVQAGGSLRLSCAASGGIGSYAMGWYRQAPGKERELVAVITAGGDSTYYADSVKGRFTISRDNAKNTVYLQMNSLKPEDTAVYYCNTVYRSKRYQYDYWGQGTQVTVSS | high polyreactivity
31 | QVQLVESGGGLVQAGGSLRLSCAASGLIFTSNTMGWYRQAPGKERELVAAISRRGGNTYYADSVKGRFTISRDNAKNTVYLQMNSLKPEDTAVYYCAAVAYALGFASKEDYWGQGTQVTVSS | high polyreactivity
32 | QVQLVESGGGLVQAGGSLRLSCAASGFTFFDYVMGWYRQAPGKERELVAAISSSGGSTNYADSVKGRFTISRDHAKNTVYLQMNSLKPEDTAVYYCNKVTYGYAYWRYDGYDYWGQGTQVTVSS | low polyreactivity
33 | QVQLVESGGGLVQAGGSLRLSCAASGSIFEYNGMGWSRQAPGKERELVAAITTTGTTDYADSVKGRFTISRDNAKNTVYLQMNSLKPEDTAVYYCAADYTYYYKGEYDYWGQGTQVTVSS | low polyreactivity
34 | QVQLQESGGGLVQAGGDLRLSCAASGKILRDYIMGWYRQASGKEREFVAGIDRGANTNYADSVKGRLTISRDNAKKTVYLQMNSLKPEDTAVYYCAVHTAIVPDFIYWGQGTQVTVSS | low polyreactivity
35 | QVQLVESGGGLVQAGGSLRLSCAASGRTFYVNAMGGYRQAPGKERELVARITSGGSTYYADSVKGRFTISRDNAKNTVYLQMNSLKPEDTAVYYCAKKYIGYQEWIHSTRRYDYWGQGTQVTGSS | low polyreactivity
36 | QVQLVESGGGLVQAGGSLRLSCAASGRTFRYAMGWYRQAPGKERELVAAITGSGGSTYYADSVKGRFTISRDNAKNTVYLQMNSLKPEDTAVYYCAAARYDYWGQGTQVTVSS | high polyreactivity
37 | QVQLVESGGGLVQAGGSLRLSCAASGSIFPYYAMGWYRPAPGKERELVAVISRGGGRTYYADSVKGRFTISRDNAKITVYLQMNSLKPEDTAVYYCYAGYPYGGDYWGQGTQVTVSS | high polyreactivity
38 | QVQLVESGGGLVQAGGSLRLRCAASGRIFNNYAMGWYRPAPGKERELVAAISGSGGSTYYADSVKGRFTISRDNAKNNVYLQMNSLKPEDTAVYYCSTSGPHYFSRNFDYWGQGTQVTVSS | low polyreactivity
39 | QFQLVESGGGLVQAGGSLRLSCAASGRISYAYAMGWYRQAPGKEREFVAAISGSGGSTYYADSVKGRFTISRDNAKKTVYLQMNSLKPEDTAVYYCDAGSGEYYGGKRYYWGQGTQVTVSS | low polyreactivity
40 | QVQLVESGGGLVQAGGSLRLSCAASGIFDPNAMGWNRQAPRKERELVAAITSGGSTNYADSVKGRFTISRDNAKNTVYLQMNSLKPEDTAVYYCNRVEGRTRWADEMNYWGQGTQLTVSS | low polyreactivity
41 | QVLLQESGGGLVQAGGSLRLSCAASGNIFSAGGMGWSRQAPVNERELVAGIGTGTSTNYADSVKGRFTISRDNSKNTVYLQMNSLTPEDTAVYYCAAAYYSGLSHWYWGQGTQVTVSS | low polyreactivity
42 | QVQLVESGGGLVQAGGSLRLSFAASGRTFLVYAMGWYRQAPGKERELVAGITSGGGTYYADSVKGRFTISRDNAKNTVYLQMNSLKPEDTAVYYCAKYRWYGVYWGQGTQVTVSS | low polyreactivity
43 | QVQLVESGGGLVQAGGSLRLSCAASGSTSVKYAMGWYRQAPGKERELVAAIRKRGDSTYYADSVKGRFTISRDNAKYSVYLQMNSLKAEDTAVYYCAAQYLRGRGYWGQGTQVTVSS | low polyreactivity
